Laboratory results taken from US20130133089A1 (MEDICAL RESEARCH INFRASTRUCTURE AND HEALTH SERVICES FUND OF …, published 2013).
Residue numbers refer to the chain shown, from its start. Names and notes keep the numbering of the source. Values joined by “and” are separate entries in the source; they are usually repeats but may differ in a detail not shown here. Equal entries are not always repeated.

Assays:
[1] = target: T1, Recombinant human leptin binding domain (hLBD) (human, UniProt P48357 428-635, biotinylated with Sulfo-NHS-LC-Biotin in the yeast display assays; not labelled when immobilized in the plate binding assay); test: competitive plate binding assay: immobilized hLBD, biotinylated mouse leptin as ligand, mutein as competitor
T1 construct: CRH2 sub-domain of the leptin receptor; Prepared in the applicants' laboratory; also called soluble human leptin receptor; CHR2
T1 sequence (looked up): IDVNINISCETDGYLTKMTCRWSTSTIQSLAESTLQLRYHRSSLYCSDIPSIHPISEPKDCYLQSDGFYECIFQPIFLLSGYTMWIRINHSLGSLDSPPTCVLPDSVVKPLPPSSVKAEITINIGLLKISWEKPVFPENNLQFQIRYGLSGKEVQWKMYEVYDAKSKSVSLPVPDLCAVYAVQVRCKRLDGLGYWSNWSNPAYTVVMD
Description: Biotinylated mouse leptin served as the ligand in all competitive experiments and the respective mouse leptin or mouse or human leptin antagonist muteins as competitors. The hLBD was used as the receptor source. Polystyrene 96-well microtiter plates were coated overnight at 4° C. with 100 μl of 40 μM hLBD in PBS pH 7.4. Wells were then washed one time with PBST (PBS containing 0.05 Tween 20) and blocked with PBS containing 3% skim milk for two hours in room temperature. All further incubations were carried out at room temperature. Wells were washed one time with PBST and incubated with different concentrations of un-labeled leptins (50 μl/well) for 30 min and then 50 μl of 62.5 μM of biotinylated mouse leptin were added to each well for another two hours. Then the wells were washed three times with PBST and incubated with 1:30,000 streptavidin-HRP in PBS containing 1 Tween 20 for one hour. Subsequently the wells were washed three times with PBST and the reaction was quantified in 450 nm by microplate reader ELISA Plate Reader ELx808—Bio-Tek Instrument Inc. (Winooski, Vt., USA) using TMB according to manufacturer's instructions.

[2] = target: long form of human leptin receptor (hLEPR) on BAF/3 or H-49 (HEK-293) cells (human), P48357; test: cell-based or functional assay
[3] = target: T1, Recombinant human leptin binding domain …; test: yeast display, flow cytometry titration with biotinylated hLBD (FIG. 4A)
From the text: (§1) Those 7 mouse leptin mutants were selected for preparation of respectively mutated leptins expressed in E. coli.

[4] = target: T1, Recombinant human leptin binding domain …; test: yeast display, flow cytometry titration with biotinylated hLBD (FIG. 4B)
From the text: as §1

long form of human leptin receptor (hLEPR) on BAF/3 or H-49 (HEK-293) cells (human), P48357, sequence (P48357 22-1165): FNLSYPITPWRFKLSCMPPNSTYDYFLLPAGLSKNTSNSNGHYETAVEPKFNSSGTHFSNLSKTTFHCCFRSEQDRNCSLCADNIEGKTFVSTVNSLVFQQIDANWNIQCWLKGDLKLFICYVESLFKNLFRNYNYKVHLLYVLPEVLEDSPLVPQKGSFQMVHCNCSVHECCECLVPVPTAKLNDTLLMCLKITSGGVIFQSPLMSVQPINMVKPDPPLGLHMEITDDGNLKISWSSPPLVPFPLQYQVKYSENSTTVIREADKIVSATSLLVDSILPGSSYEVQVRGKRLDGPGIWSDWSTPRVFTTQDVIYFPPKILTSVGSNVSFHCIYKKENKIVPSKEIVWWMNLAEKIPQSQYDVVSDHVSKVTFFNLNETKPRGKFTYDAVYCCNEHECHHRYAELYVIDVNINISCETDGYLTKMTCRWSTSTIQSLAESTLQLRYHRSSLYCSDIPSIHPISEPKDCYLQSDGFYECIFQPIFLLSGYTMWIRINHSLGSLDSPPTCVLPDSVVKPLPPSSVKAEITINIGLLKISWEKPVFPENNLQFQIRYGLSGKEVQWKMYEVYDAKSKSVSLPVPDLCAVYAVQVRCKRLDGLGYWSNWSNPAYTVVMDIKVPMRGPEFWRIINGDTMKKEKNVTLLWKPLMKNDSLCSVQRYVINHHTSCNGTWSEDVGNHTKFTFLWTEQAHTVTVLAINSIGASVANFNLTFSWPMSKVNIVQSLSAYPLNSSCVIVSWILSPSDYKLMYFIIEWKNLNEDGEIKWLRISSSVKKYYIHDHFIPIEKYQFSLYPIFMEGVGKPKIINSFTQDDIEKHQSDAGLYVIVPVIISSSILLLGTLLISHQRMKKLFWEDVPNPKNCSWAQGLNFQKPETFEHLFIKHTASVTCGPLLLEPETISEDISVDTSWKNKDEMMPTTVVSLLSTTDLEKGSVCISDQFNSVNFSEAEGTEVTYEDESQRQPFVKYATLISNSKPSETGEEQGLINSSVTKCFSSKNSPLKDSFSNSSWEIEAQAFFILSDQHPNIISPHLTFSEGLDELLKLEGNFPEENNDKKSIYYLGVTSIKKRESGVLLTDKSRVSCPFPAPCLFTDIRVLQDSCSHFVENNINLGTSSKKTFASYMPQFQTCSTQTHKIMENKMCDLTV

B1: mouse leptin antagonist H12 (S97Y + L39A/D40A/F41A) (ligand)
chain: AVPIQKVQDDTKTLIKTIVTRINDISHTQSVSAKQRVTGAAAIPGLHPILSLSKMDQTLAVYQQVLTSLPSQNVLQIANDLENLRDLLHLLAFSKSCYLPQTSGLQKPESLDGVLEASLYSTEVVALSRLQGSLQDILQQLDVSPEC
notes: mature; also called H12 (antagonist)
[1]
  fold increase in affinity as compared to the WT mouse leptin antagonist: 1.4 fold

B2: mouse leptin antagonist H15 (D23G, L68M, S97F, S132Y + L39A/D40A/F41A) (ligand)
chain: B1 chain with D24G, L69M, Y98F, S133Y
notes: mature; also called H15 (antagonist)
[1]
  fold increase in affinity as compared to the WT mouse leptin antagonist: 12.4 fold

B3: mouse leptin antagonist H16 (D23G, G112S + L39A/D40A/F41A) (ligand)
chain: B1 chain with D24G, Y98S, G113S
notes: mature; also called H16 (antagonist)
[1]
  fold increase in affinity as compared to the WT mouse leptin antagonist: 11 fold

B4: mouse leptin antagonist H19 (D23G, T37A, G44D + L39A/D40A/F41A) (ligand)
chain: B1 chain with D24G, T38A, G45D, Y98S
notes: mature; also called H19 (antagonist)
[1]
  fold increase in affinity as compared to the WT mouse leptin antagonist: 6.1 fold

B5: mouse leptin antagonist H22 (T12I + L39A/D40A/F41A) (ligand)
chain: B1 chain with T13I, Y98S
notes: mature; also called H22 (antagonist)
[1]
  fold increase in affinity as compared to the WT mouse leptin antagonist: 11.2 fold

B6: recombinant mouse leptin mutein H12 (S97Y), agonist (ligand)
chain: B1 chain with A40L, A41D, A42F
notes: mature
[1]
  fold increase in affinity as compared to the WT mouse leptin: 1.5 fold

B7: recombinant mouse leptin mutein H15 (D23G, L68M, S97F, S132Y), agonist (ligand)
chain: B1 chain with D24G, A40L, A41D, A42F, L69M, Y98F, S133Y
notes: mature
[1]
  fold increase in affinity as compared to the WT mouse leptin: 9.7 fold

B8: recombinant mouse leptin mutein H16 (D23G, G112S), agonist (ligand)
chain: B1 chain with D24G, A40L, A41D, A42F, Y98S, G113S
notes: mature
[2]
  BAF/3 bioassay: fold increase in bioactivity as compared to the WT mouse leptin: 0.8 fold
  Luciferase bioassay: fold increase in bioactivity as compared to the WT mouse leptin: 0.9 fold
[1]
  fold increase in affinity as compared to the WT mouse leptin: 20.3 fold

B9: recombinant mouse leptin mutein H22 (T12I), agonist (ligand)
chain: B1 chain with T13I, A40L, A41D, A42F, Y98S
notes: mature
[1]
  fold increase in affinity as compared to the WT mouse leptin: 11.7 fold

B10: mouse leptin antagonist H15 (D23G, L68M, S97F, S132Y + L39A/D40A/F41A), P41160 22-167 (ligand)
chain: B1 chain with D24G, L69M, Y98F, S133Y
[2]
  BAF/3 bioassay: fold increase in bioactivity as compared to the WT mouse leptin antagonist: 4.8 fold
  Luciferase bioassay: fold increase in bioactivity as compared to the WT mouse leptin antagonist: 4.2 fold

B11: mouse leptin antagonist H22 (T12I + L39A/D40A/F41A), P41160 22-167 (ligand)
chain: B1 chain with T13I, Y98S
[2]
  BAF/3 bioassay: fold increase in bioactivity as compared to the WT mouse leptin antagonist: 2.4 fold
  Luciferase bioassay: fold increase in bioactivity as compared to the WT mouse leptin antagonist: 3.3 fold

B12: mouse leptin antagonist H12 (S97Y + L39A/D40A/F41A), P41160 22-167 (ligand)
chain: B1 chain
[2]
  BAF/3 bioassay: fold increase in bioactivity as compared to the WT mouse leptin antagonist: 0.8 fold
  Luciferase bioassay: fold increase in bioactivity as compared to the WT mouse leptin antagonist: 0.1 fold

B13: mouse leptin antagonist H16 (D23G, G112S + L39A/D40A/F41A), P41160 22-167 (ligand)
chain: B1 chain with D24G, Y98S, G113S
[2]
  BAF/3 bioassay: fold increase in bioactivity as compared to the WT mouse leptin antagonist: 3.3 fold
  Luciferase bioassay: fold increase in bioactivity as compared to the WT mouse leptin antagonist: 3.3 fold

B14: mouse leptin antagonist H19 (D23G, T37A, G44D + L39A/D40A/F41A), P41160 22-167 (ligand)
chain: B1 chain with D24G, T38A, G45D, Y98S
[2]
  BAF/3 bioassay: fold increase in bioactivity as compared to the WT mouse leptin antagonist: 3.5 fold
  Luciferase bioassay: fold increase in bioactivity as compared to the WT mouse leptin antagonist: 2.9 fold

B15: recombinant mouse leptin mutein H15 (D23G, L68M, S97F, S132Y), agonist, P41160 22-167 (ligand)
chain: B1 chain with D24G, A40L, A41D, A42F, L69M, Y98F, S133Y
[2]
  BAF/3 bioassay: fold increase in bioactivity as compared to the WT mouse leptin: 0.5 fold
  Luciferase bioassay: fold increase in bioactivity as compared to the WT mouse leptin: 0.8 fold

B16: superactive mouse leptin antagonist (SMLA), D23L/L39A/D40A/F41A mouse leptin, P41160 22-167 (ligand)
chain: VPIQKVQDDTKTLIKTLVTRINLISHTQSVSAKQRVTGAAAIPGLHPILSLSKMDQTLAVYQQVLTSLPSQNVLQIANDLENLRDLLHLLAFSKSCSLPQTSGLQKPESLDGVLEASLYSTEVVALSRLQGSLQDILQQVDLSPGC
[2]
  BAF/3 bioassay: fold increase in bioactivity as compared to the WT mouse leptin antagonist: 13.9 fold
  Luciferase bioassay: fold increase in bioactivity as compared to the WT mouse leptin antagonist: 13.4 fold
  biological (inhibitory) activity, FIG. 12A: fold higher than that of HLA: > 9 fold

B17: pegylated superactive mouse leptin antagonist (PEG-SMLA), P41160 22-167 (ligand)
chain: B16 chain
modifications: here or on the partner: mPEG-propionyl-ALD 20 kDa, preferentially on the N-terminal amino group (85% monopegylated, ~9% double pegylated)
[2]
  biological activity in H-49 cells: fold reduction as compared to the non-pegylated SMLA: 9 fold

B18: pegylated mouse leptin antagonist (PEG-MLA), P41160 22-167 (ligand)
chain: B1 chain with Y98S
modifications: here or on the partner: pegylated (method previously described for MLA; 20 kDa PEG, site not restated here)
[2]
  biological activity: fold reduction by pegylation of MLA: 7 fold

B19: human leptin super antagonist (SHLA), human leptin D23L/L39A/D40A/F41A, P41159 22-167 (ligand)
chain: VPIQKVQDDTKTLIKTIVTRINLISHTQSVSSKQKVTGAAAIPGLHPILTLSKMDQTLAVYQQILTSMPSQNVIQISNDLENLRDLLHVLAFSKSCHLPWASGLETLDSLGGVLEASGYSTEVVALSRLQGSLQDMLWQLDLSPGC
[2]
  biological (inhibitory) activity, FIG. 12A: fold higher than that of HLA: > 9 fold

B20: recombinant mouse leptin mutein H22 (T12I), agonist, P41160 22-167 (ligand)
chain: B1 chain with T13I, A40L, A41D, A42F, Y98S
[2]
  BAF/3 bioassay: fold increase in bioactivity as compared to the WT mouse leptin: 0.8 fold
  Luciferase bioassay: fold increase in bioactivity as compared to the WT mouse leptin: 0.7 fold

B21: recombinant mouse leptin mutein H12 (S97Y), agonist, P41160 22-167 (ligand)
chain: B1 chain with A40L, A41D, A42F
[2]
  BAF/3 bioassay: fold increase in bioactivity as compared to the WT mouse leptin: 0.9 fold
  Luciferase bioassay: fold increase in bioactivity as compared to the WT mouse leptin: 0.7 fold

B22: wild type mouse leptin displayed on yeast as Aga2p fusion (ligand, UniProt P41160 22-167, looked up, not shown: large carriers; small tags and cut ends)
chain: B16 chain with L17I, L23D, A39L, A40D, A41F, V140L, L142V, G145E
notes: mature; also called mlep wt; mlep, wt1
[3]
  Kd: 159 nM and 115 nM
[4]
  Kd: 95 nM and 95.7 nM

B23: yeast-displayed mouse leptin clone H2 (A125T, S132Y) (ligand, UniProt P41160 22-167, looked up, not shown: large carriers; small tags and cut ends)
chain: B16 chain with L17I, L23D, A39L, A40D, A41F, A125T, S132Y, V140L, L142V, G145E
notes: mature
[4]
  Bmax: 2570 MFI
  Kd: 243 nM

B24: yeast-displayed mouse leptin clone H3 (D23G, L68M, S97F, S132Y) (ligand, UniProt P41160 22-167, looked up, not shown: large carriers; small tags and cut ends)
chain: VPIQKVQDDTKTLIKTIVTRINGISHTQSVSAKQRVTGLDFIPGLHPILSLSKMDQTLAVYQQVLTSMPSQNVLQIANDLENLRDLLHLLAFSKSCFLPQTSGLQKPESLDGVLEASLYSTEVVALSRLQGYLQDILQQLDVSPEC
notes: mature; also called H15; H4
[3]
  Bmax: 1450 MFI
  Kd: 91.7 nM
[4]
  Bmax: 1350 MFI
  Kd: 92.8 nM

B25: yeast-displayed mouse leptin clone H6 (D23G, V30D, Y119H) (ligand, UniProt P41160 22-167, looked up, not shown: large carriers; small tags and cut ends)
chain: B24 chain with V30D, M68L, F97S, Y119H, Y132S
notes: mature
[4]
  Bmax: 1290 MFI
  Kd: 99.1 nM

B26: yeast-displayed mouse leptin clone H7 (K11R, Q34R, T37A, F92C, S97Y, I136V) (ligand, UniProt P41160 22-167, looked up, not shown: large carriers; small tags and cut ends)
chain: B24 chain with K11R, G23D, Q34R, T37A, M68L, F92C, F97Y, Y132S, I136V
notes: mature; also called H18; H27
[3]
  Bmax: 1590 MFI
  Kd: 126 nM
[4]
  Bmax: 1140 MFI
  Kd: 83.5 nM

B27: yeast-displayed mouse leptin clone H12 (S97Y) (ligand, UniProt P41160 22-167, looked up, not shown: large carriers; small tags and cut ends)
chain: B24 chain with G23D, M68L, F97Y, Y132S
notes: mature; also called H20; H24
[3]
  Bmax: 961 MFI
  Kd: 130 nM
[4]
  Bmax: 785 MFI
  Kd: 103 nM

B28: yeast-displayed mouse leptin clone H16 (D23G, G112S) (ligand, UniProt P41160 22-167, looked up, not shown: large carriers; small tags and cut ends)
chain: B24 chain with M68L, F97S, G112S, Y132S
notes: mature
[4]
  Bmax: 550 MFI
  Kd: 44 nM

B29: yeast-displayed mouse leptin clone H17 (S109F) (ligand, UniProt P41160 22-167, looked up, not shown: large carriers; small tags and cut ends)
chain: B24 chain with G23D, M68L, F97S, S109F, Y132S
notes: mature
[3]
  Bmax: 3600 MFI
  Kd: 620 nM

B30: yeast-displayed mouse leptin clone H19 (D23G, T37A, G44D) (ligand, UniProt P41160 22-167, looked up, not shown: large carriers; small tags and cut ends)
chain: B24 chain with T37A, G44D, M68L, F97S, Y132S
notes: mature
[3]
  Bmax: 968 MFI
  Kd: 104 nM
[4]
  Bmax: 966 MFI
  Kd: 68.4 nM

B31: yeast-displayed mouse leptin clone H22 (T12I) (ligand, UniProt P41160 22-167, looked up, not shown: large carriers; small tags and cut ends)
chain: B24 chain with T12I, G23D, M68L, F97S, Y132S
notes: mature
[3]
  Bmax: 852 MFI
  Kd: 122 nM
[4]
  Bmax: 719 MFI
  Kd: 82.3 nM

B32: yeast-displayed mouse leptin clone H30 (D23H) (ligand, UniProt P41160 22-167, looked up, not shown: large carriers; small tags and cut ends)
chain: B24 chain with G23H, M68L, F97S, Y132S
notes: mature
[3]
  Bmax: 847 MFI
  Kd: 59.5 nM
[4]
  Bmax: 741 MFI
  Kd: 40.9 nM

B33: yeast-displayed mouse leptin clone L1 (D23N, Q34L, L114P) (ligand, UniProt P41160 22-167, looked up, not shown: large carriers; small tags and cut ends)
chain: B24 chain with G23N, Q34L, M68L, F97S, L114P, Y132S
notes: mature
[4]
  Bmax: 1680 MFI
  Kd: 158 nM
